Patent US20090304651A1 (published 2009)

Assays:
[1] = target: T1, recombinant human IGF-II (Insulin-like Growth Factor II) (human, UniProt P01344 25-91, biotinylated (Biotinyl-IGF-II, GroPep) where immobilised in SPR, site not stated; not biotinylated in ITC and as SPR analyte); assay: SPR, IGF-II immobilised, steady state
T1 construct: also called IGF2; IGF-2
Procedure: (§1) Kinetic analysis by Surface Plasmon Resonance (SPR) was conducted on a BIAcore 3000 biosensor (BIAcore, Uppsala, Sweden) at 25° C. in HBS-EP (10 mM HEPES, pH 7.4, 150 mM NaCl, 3 mM EDTA, 0.005% surfactant P20) at a flow rate of 40 μl/min. […] Kinetic experiments consisted of a two minute injection of analyte followed by a 100 s dissociation phase in running buffer, after which the binding surface was regenerated with a 2 minute injection of 2 M MgCl₂. A blank flow cell was used for in-line reference subtraction of changes due to differences in refractive index of running buffer versus sample and a buffer-only injection was used to subtract instrument noise and drift. Injections were performed in duplicate for each concentration and in a randomised order. Kinetic parameters were determined by global fitting of sensorgrams to a two-state (conformational change) binding model using BIAevaluation software version 4.0.1. In all cases the minor component made an insignificant contribution to the overall affinity and as such only the kinetic parameters of the major binding component were used. For each interaction the dissociation affinity constant (KD) was also calculated by fitting of the response of each concentration at equilibrium to a steady-state affinity model using BIAevaluation. In order to investigate the influence of ionic strength, kinetic experiments were conducted in HBS-EP running buffers containing the desired NaCl concentration. In each case, analyte samples were made up in the appropriate running buffer prior to injection.
(§2) Following purification, the binding of each mutant construct to IGF2 was assessed by SPR and compared to the wild type domain 11. Sensorgrams were generated using biotinylated IGF2 immobilised to the cell surface and mutant domain 11 proteins as the free analyte (FIG. 4).

[2] = target: T1, recombinant human IGF-II (Insulin-like …); assay: SPR, steady-state KD relative to wild type
Procedure: […]. Values are the mean±S.E.M. of three separate experiments.
as §1
Following purification, the binding of each mutant construct to IGF2 was assessed by SPR and compared to the wild type domain 11.

[3] = target: T1, recombinant human IGF-II (Insulin-like …); assay: SPR, IGF-II immobilised, kinetic fit
Procedure: as §1, §2

[4] = target: T1, recombinant human IGF-II (Insulin-like …); assay: SPR (Biacore)
[5] = target: T1, recombinant human IGF-II (Insulin-like …); assay: ITC, IGF-II titrated into domain 11
Procedure: Calorimetric measurements were performed using a VP-ITC microcalorimeter (MicroCal). All solutions were thoroughly degassed before use by stirring under vacuum. […] The sample cell contained either wild type domain 11 (7 uM) or the E1544A mutant (8 μM), also in HBS-E buffer. To correct for the heat effects of dilution and mixing, reaction heats obtained from a control experiment, in which IGF2 was injected into HBS-E, were subtracted. Calorimetric data were analysed using MicroCal ORIGIN software (version 5.0) supplied with the instrument. Thermodynamic parameters were derived by fitting the binding isotherms to a single-site binding model. Values for dissociation affinity constants (KD) were determined from duplicate experiments.
In order to validate the SPR sensorgram data, ITC was used to assess the binding affinity between domain 11 and IGF-II. The affinity of the E1544A mutant was also assessed by ITC in order to confirm whether use of a second technique agreed as to the apparent increase in affinity (FIG. 6 and Table 6). Titrations were performed using 17×15 μl injections of 40 μM IGF-II (after an initial 7.51 injection) into the reaction cell containing wild type domain 11 or the E1544A mutant. […] The two fold differences may be simply accounted for by the fidelity of both techniques.

T1 sequence (P01344 25-91 limits assumed): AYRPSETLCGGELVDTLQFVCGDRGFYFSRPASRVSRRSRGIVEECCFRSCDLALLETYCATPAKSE

| Binder | Kd [1] | Relative Affinity [2] | Kd [3] | koff [3] | kon [3] | Kd [4] | Kd [5] |
| --- | --- | --- | --- | --- | --- | --- | --- |
| IGF2R domain 11 K1545A (amino acids 1511-1650, C-terminal His6 tag, from Pichia pastoris) (receptor) NEHDDCQVTNPSTGHLFDLSSLSGRAGFTAAYSEAGLVYMSICGENENCPPGVGACFGQTRISVGKANKRLRYVDQVLQLVYKDGSPCPSKSGLSYKSVISFVCRPEAGPTNRPMLISLDKQTCTLFFSWHTPLACEQATHHHHHH | 289 nM | 0.36 fold (wild type = 1.00) | 287 nM | 0.078 s⁻¹ | 273000 M⁻¹ s⁻¹ | – | – |
| IGF2R domain 11 S1543A (amino acids 1511-1650, C-terminal His6 tag, from Pichia pastoris) (receptor) NEHDDCQVTNPSTGHLFDLSSLSGRAGFTAAYAEKGLVYMSICGENENCPPGVGACFGQTRISVGKANKRLRYVDQVLQLVYKDGSPCPSKSGLSYKSVISFVCRPEAGPTNRPMLISLDKQTCTLFFSWHTPLACEQATHHHHHH | 262 nM | 0.39 fold (wild type = 1.00) | 260 nM | 0.096 s⁻¹ | 369000 M⁻¹ s⁻¹ | – | – |
| IGF2R domain 11 Q1569A (amino acids 1511-1650, C-terminal His6 tag, from Pichia pastoris) (receptor) NEHDDCQVTNPSTGHLFDLSSLSGRAGFTAAYSEKGLVYMSICGENENCPPGVGACFGATRISVGKANKRLRYVDQVLQLVYKDGSPCPSKSGLSYKSVISFVCRPEAGPTNRPMLISLDKQTCTLFFSWHTPLACEQATHHHHHH | 130 nM | 0.8 fold (wild type = 1.00) | 130 nM | 0.069 s⁻¹ | 529000 M⁻¹ s⁻¹ | 130 nM | 209 nM |
| IGF2R domain 11 Y1542A (amino acids 1511-1650, C-terminal His6 tag, from Pichia pastoris) (receptor) NEHDDCQVTNPSTGHLFDLSSLSGRAGFTAAASEKGLVYMSICGENENCPPGVGACFGQTRISVGKANKRLRYVDQVLQLVYKDGSPCPSKSGLSYKSVISFVCRPEAGPTNRPMLISLDKQTCTLFFSWHTPLACEQATHHHHHH | 633 nM | 0.16 fold (wild type = 1.00) | 639 nM | 0.169 s⁻¹ | 265000 M⁻¹ s⁻¹ | – | – |
| IGF2R domain 11 T1570A (amino acids 1511-1650, C-terminal His6 tag, from Pichia pastoris) (receptor) NEHDDCQVTNPSTGHLFDLSSLSGRAGFTAAYSEKGLVYMSICGENENCPPGVGACFGQARISVGKANKRLRYVDQVLQLVYKDGSPCPSKSGLSYKSVISFVCRPEAGPTNRPMLISLDKQTCTLFFSWHTPLACEQATHHHHHH | 930 nM | 0.11 fold (wild type = 1.00) | 954 nM | 0.281 s⁻¹ | 295000 M⁻¹ s⁻¹ | – | – |
| IGF2R domain 11 S1596A (amino acids 1511-1650, C-terminal His6 tag, from Pichia pastoris) (receptor) NEHDDCQVTNPSTGHLFDLSSLSGRAGFTAAYSEKGLVYMSICGENENCPPGVGACFGQTRISVGKANKRLRYVDQVLQLVYKDGAPCPSKSGLSYKSVISFVCRPEAGPTNRPMLISLDKQTCTLFFSWHTPLACEQATHHHHHH | 170 nM | 0.61 fold (wild type = 1.00) | 179 nM | 0.079 s⁻¹ | 441000 M⁻¹ s⁻¹ | 170 nM | 324 nM |
